Source: PMC9131899 (Blood Advances, 2022)

Target: T1, high molecular weight kininogen (HK), purified protein used in ELISA (human, UniProt P01042 19-644)
T1 sequence (looked up): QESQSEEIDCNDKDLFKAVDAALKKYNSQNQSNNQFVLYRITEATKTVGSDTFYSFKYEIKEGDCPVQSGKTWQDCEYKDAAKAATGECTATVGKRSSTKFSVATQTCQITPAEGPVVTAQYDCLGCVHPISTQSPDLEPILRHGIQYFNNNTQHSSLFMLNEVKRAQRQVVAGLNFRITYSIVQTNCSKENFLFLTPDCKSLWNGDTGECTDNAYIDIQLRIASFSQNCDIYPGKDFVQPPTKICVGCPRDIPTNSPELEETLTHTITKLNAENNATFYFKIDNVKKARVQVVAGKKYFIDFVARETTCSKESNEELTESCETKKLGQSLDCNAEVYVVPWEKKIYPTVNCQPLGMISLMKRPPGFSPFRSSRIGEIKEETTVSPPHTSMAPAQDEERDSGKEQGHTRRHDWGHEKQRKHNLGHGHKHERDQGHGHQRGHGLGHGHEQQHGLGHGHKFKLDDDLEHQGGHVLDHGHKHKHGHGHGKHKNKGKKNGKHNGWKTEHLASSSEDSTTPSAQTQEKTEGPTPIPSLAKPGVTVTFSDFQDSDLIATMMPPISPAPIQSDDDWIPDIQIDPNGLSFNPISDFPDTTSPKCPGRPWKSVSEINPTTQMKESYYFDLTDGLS
Test: ELISA

binding result: binds
B1: prekallikrein (PK), purified protein used in ELISA (natural protein)
chain: not shown
